Results published in patent US20240059789A1 (Janssen / Centocor, published 2024).

Assays:
[1] = target: Human CD3 on T cells / Jurkat cells (human, UniProt P07766 23-207); test: cell-based or functional assay
[2] = target: Human PSMA on prostate cancer cell lines (C4-2B, 22RV1) (human, UniProt Q04609 1-750); test: cell-based or functional assay
Sequence of Human PSMA on prostate cancer cell lines (C4-2B, 22RV1) (Q04609 whole entry): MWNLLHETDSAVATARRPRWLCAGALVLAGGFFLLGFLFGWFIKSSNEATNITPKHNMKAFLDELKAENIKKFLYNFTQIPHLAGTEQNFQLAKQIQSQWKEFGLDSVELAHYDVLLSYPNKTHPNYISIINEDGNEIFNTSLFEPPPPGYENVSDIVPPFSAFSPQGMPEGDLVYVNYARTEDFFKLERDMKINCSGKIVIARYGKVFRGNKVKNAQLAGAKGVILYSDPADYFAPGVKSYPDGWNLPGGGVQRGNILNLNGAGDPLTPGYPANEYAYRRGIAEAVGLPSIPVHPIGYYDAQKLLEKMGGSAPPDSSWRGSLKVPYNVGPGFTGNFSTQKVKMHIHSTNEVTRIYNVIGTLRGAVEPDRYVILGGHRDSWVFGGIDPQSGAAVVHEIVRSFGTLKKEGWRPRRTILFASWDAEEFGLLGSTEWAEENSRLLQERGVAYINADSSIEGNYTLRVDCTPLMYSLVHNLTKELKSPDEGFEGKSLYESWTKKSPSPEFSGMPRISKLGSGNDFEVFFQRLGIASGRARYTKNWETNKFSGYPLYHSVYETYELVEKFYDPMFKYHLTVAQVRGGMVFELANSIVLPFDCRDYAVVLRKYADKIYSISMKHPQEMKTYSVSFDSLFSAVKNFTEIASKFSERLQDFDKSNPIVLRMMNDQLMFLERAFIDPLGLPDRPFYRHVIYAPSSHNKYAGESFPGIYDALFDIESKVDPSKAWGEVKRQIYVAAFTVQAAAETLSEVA

Sequence of Human CD3 on T cells / Jurkat cells (P07766 23-207 limits assumed): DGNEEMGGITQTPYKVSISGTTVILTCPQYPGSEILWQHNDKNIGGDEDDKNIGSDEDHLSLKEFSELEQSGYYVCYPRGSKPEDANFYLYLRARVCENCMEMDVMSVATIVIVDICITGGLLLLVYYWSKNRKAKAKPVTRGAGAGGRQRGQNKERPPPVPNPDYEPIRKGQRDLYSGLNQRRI

Row | T cell activation EC50 [M] (CD25+ T cells, C4-2B co-culture, 72 h) [1] | Binder | Tumor killing EC50 [M] (C4-2B + PAN-T cells, 72 h, flow cytometry) [2]
1 | 1.77e-09 | PS3B920 (bispecific antibody, human IgG1, lambda, L234A L235A) heavy 1: QVQLQQSGPRLVRPSQTLSLTCAISGDSVFNNNAAWSWIRQSPSRGLEWLGRTYYRSKWLYDYAVSVKSRITVNPDTSRNQFTLQLNSVTPEDTALYYCARGYSSSFDYWGQGTLVTVSSASTKGPSVFPLAPSSKSTSGGTAALGCLVKDYFPEPVTVSWNSGALTSGVHTFPAVLQSSGLYSLSSVVTVPSSSLGTQTYICNVNHKPSNTKVDKKVEPKSCDKTHTCPPCPAPEAAGGPSVFLFPPKPKDTLMISRTPEVTCVVVSVSHEDPEVKFNWYVDGVEVHNAKTKPREEQYNSTYRVVSVLTVLHQDWLNGKEYKCKVSNKALPAPIEKTISKAKGQPREPQVYTLPPSREEMTKNQVSLTCLVKGFYPSDIAVEWESNGQPENNYKTTPPVLDSDGSFLLYSKLTVDKSRWQQGNVFSCSVMHEALHNHYTQKSLSLSPG light 1: QSALTQPASVSGSPGQSITISCTGTSSNIGTYKFVSWYQQHPDKAPKVLLYEVSKRPSGVSSRFSGSKSGNTASLTISGLQAEDQADYHCVSYAGSGTLLFGGGTKLTVLGQPKAAPSVTLFPPSSEELQANKATLVCLISDFYPGAVTVAWKADSSPVKAGVETTTPSKQSNNKYAASSYLSLTPEQWKSHRSYSCQVTHEGSTVEKTVAPTECS heavy 2: EVQLVESGGGLVQPGGSLRLSCAASGFTFSSYAMSWVRQAPGKGLEWVSAISGGSGSTYYADSVKGRFTISRDNSKNTLYLQMNSLRAEDSAVYYCAKDGVGATPYYFDYWGQGTLVTVSSASTKGPSVFPLAPSSKSTSGGTAALGCLVKDYFPEPVTVSWNSGALTSGVHTFPAVLQSSGLYSLSSVVTVPSSSLGTQTYICNVNHKPSNTKVDKKVEPKSCDKTHTCPPCPAPEAAGGPSVFLFPPKPKDTLMISRTPEVTCVVVSVSHEDPEVKFNWYVDGVEVHNAKTKPREEQYNSTYRVVSVLTVLHQDWLNGKEYKCKVSNKALPAPIEKTISKAKGQPREPQVYTLPPSREEMTKNQVSLTCLVKGFYPSDIAVEWESNGQPENNYKTTPPVLDSDGSFFLYSRLTVDKSRWQQGNVFSCSVMHEALHNHYTQKSLSLSPG light 2: QSVLTQPPSVSAAPGQKVTISCSGSSSNIGNNYVSWYQQLPGTAPKLLIYDNNKRPSGIPDRFSGSKSGTSATLGITGLQTGDEADYYCGTWDSSLSAYVFGTGTKVTVLGQPKAAPSVTLFPPSSEELQANKATLVCLISDFYPGAVTVAWKADSSPVKAGVETTTPSKQSNNKYAASSYLSLTPEQWKSHRSYSCQVTHEGSTVEKTVAPTECS | 3.2e-09
2 | 5.85e-11 | PS3B922 (bispecific antibody, human IgG1, lambda, L234A L235A) heavy 1: QVQLQQSGPRLVRPSQTLSLTCAISGDSVFNNNAAWSWIRQSPSRGLEWLGRTYYRSKWLYDYAVSVKSRITVNPDTSRNQFTLQLNSVTPEDTALYYCARGYSSSFDYWGQGTLVTVSSASTKGPSVFPLAPSSKSTSGGTAALGCLVKDYFPEPVTVSWNSGALTSGVHTFPAVLQSSGLYSLSSVVTVPSSSLGTQTYICNVNHKPSNTKVDKKVEPKSCDKTHTCPPCPAPEAAGGPSVFLFPPKPKDTLMISRTPEVTCVVVSVSHEDPEVKFNWYVDGVEVHNAKTKPREEQYNSTYRVVSVLTVLHQDWLNGKEYKCKVSNKALPAPIEKTISKAKGQPREPQVYTLPPSREEMTKNQVSLTCLVKGFYPSDIAVEWESNGQPENNYKTTPPVLDSDGSFLLYSKLTVDKSRWQQGNVFSCSVMHEALHNHYTQKSLSLSPG light 1: QSALTQPASVSGSPGQSITISCTGTSSNIGTYKFVSWYQQHPDKAPKVLLYEVSKRPSGVSSRFSGSKSGNTASLTISGLQAEDQADYHCVSYAGSGTLLFGGGTKLTVLGQPKAAPSVTLFPPSSEELQANKATLVCLISDFYPGAVTVAWKADSSPVKAGVETTTPSKQSNNKYAASSYLSLTPEQWKSHRSYSCQVTHEGSTVEKTVAPTECS heavy 2: EVQLVESGGGLVQPGGSLRLSCAASGFTFSSYAMSWVRQAPGKGLEWVSAISGGSGSTYYADSVKGRFTISRDNSKNTLYLQMNSLRAEDSAVYYCAKDGVGATPYYFDYWGQGTLVTVSSASTKGPSVFPLAPSSKSTSGGTAALGCLVKDYFPEPVTVSWNSGALTSGVHTFPAVLQSSGLYSLSSVVTVPSSSLGTQTYICNVNHKPSNTKVDKKVEPKSCDKTHTCPPCPAPEAAGGPSVFLFPPKPKDTLMISRTPEVTCVVVSVSHEDPEVKFNWYVDGVEVHNAKTKPREEQYNSTYRVVSVLTVLHQDWLNGKEYKCKVSNKALPAPIEKTISKAKGQPREPQVYTLPPSREEMTKNQVSLTCLVKGFYPSDIAVEWESNGQPENNYKTTPPVLDSDGSFFLYSRLTVDKSRWQQGNVFSCSVMHEALHNHYTQKSLSLSPG light 2: QSVLTQPPSVSAAPGQKVTISCSGSSSNIGINYVSWYQQLPGTAPKLLIYDNNKRPSGIPDRFSGSKSGTSATLGITGLQTGDEADYYCGTWDSSLSAVVFGGGTKLTVLGQPKAAPSVTLFPPSSEELQANKATLVCLISDFYPGAVTVAWKADSSPVKAGVETTTPSKQSNNKYAASSYLSLTPEQWKSHRSYSCQVTHEGSTVEKTVAPTECS | 7.79e-11
3 | 2.11e-11 | PS3B921 (bispecific antibody, human IgG1, lambda, L234A L235A) heavy 1: QVQLQQSGPRLVRPSQTLSLTCAISGDSVFNNNAAWSWIRQSPSRGLEWLGRTYYRSKWLYDYAVSVKSRITVNPDTSRNQFTLQLNSVTPEDTALYYCARGYSSSFDYWGQGTLVTVSSASTKGPSVFPLAPSSKSTSGGTAALGCLVKDYFPEPVTVSWNSGALTSGVHTFPAVLQSSGLYSLSSVVTVPSSSLGTQTYICNVNHKPSNTKVDKKVEPKSCDKTHTCPPCPAPEAAGGPSVFLFPPKPKDTLMISRTPEVTCVVVSVSHEDPEVKFNWYVDGVEVHNAKTKPREEQYNSTYRVVSVLTVLHQDWLNGKEYKCKVSNKALPAPIEKTISKAKGQPREPQVYTLPPSREEMTKNQVSLTCLVKGFYPSDIAVEWESNGQPENNYKTTPPVLDSDGSFLLYSKLTVDKSRWQQGNVFSCSVMHEALHNHYTQKSLSLSPG light 1: QSALTQPASVSGSPGQSITISCTGTSSNIGTYKFVSWYQQHPDKAPKVLLYEVSKRPSGVSSRFSGSKSGNTASLTISGLQAEDQADYHCVSYAGSGTLLFGGGTKLTVLGQPKAAPSVTLFPPSSEELQANKATLVCLISDFYPGAVTVAWKADSSPVKAGVETTTPSKQSNNKYAASSYLSLTPEQWKSHRSYSCQVTHEGSTVEKTVAPTECS heavy 2: EVQLVESGGGLVQPGGSLRLSCAASGFTFSSYAMSWVRQAPGKGLEWVSAISGGIGSTYYADSVKGRFTISRDNSKNTLWLQMNSLRAEDTAVYYCAKDGVGATPYYFDYWGQGTLVTVSSASTKGPSVFPLAPSSKSTSGGTAALGCLVKDYFPEPVTVSWNSGALTSGVHTFPAVLQSSGLYSLSSVVTVPSSSLGTQTYICNVNHKPSNTKVDKKVEPKSCDKTHTCPPCPAPEAAGGPSVFLFPPKPKDTLMISRTPEVTCVVVSVSHEDPEVKFNWYVDGVEVHNAKTKPREEQYNSTYRVVSVLTVLHQDWLNGKEYKCKVSNKALPAPIEKTISKAKGQPREPQVYTLPPSREEMTKNQVSLTCLVKGFYPSDIAVEWESNGQPENNYKTTPPVLDSDGSFFLYSRLTVDKSRWQQGNVFSCSVMHEALHNHYTQKSLSLSPG light 2: QSVLTQPPSVSAAPGQKVTISCSGSSSNIGINYVSWYQQLPGTAPKLLIYDNNKRPSGIPDRFSGSKSGTSATLGITGLQTGDEADYYCGTWDSSLSAVVFGGGTKLTVLGQPKAAPSVTLFPPSSEELQANKATLVCLISDFYPGAVTVAWKADSSPVKAGVETTTPSKQSNNKYAASSYLSLTPEQWKSHRSYSCQVTHEGSTVEKTVAPTECS | 3.11e-11
4 | 1e-08 | PS3B931 (bispecific antibody, human IgG1, kappa, lambda, L234A L235A) heavy 1: EVQLVESGGGLVKPGGSLRLSCAASGFTFSRYNMNWVRQAPGKGLEWVSSISTSSNYIYYADSVKGRFTFSRDNAKNSLDLQMSGLRAEDTAIYYCTRGWGPFDYWGQGTLVTVSSASTKGPSVFPLAPSSKSTSGGTAALGCLVKDYFPEPVTVSWNSGALTSGVHTFPAVLQSSGLYSLSSVVTVPSSSLGTQTYICNVNHKPSNTKVDKKVEPKSCDKTHTCPPCPAPEAAGGPSVFLFPPKPKDTLMISRTPEVTCVVVSVSHEDPEVKFNWYVDGVEVHNAKTKPREEQYNSTYRVVSVLTVLHQDWLNGKEYKCKVSNKALPAPIEKTISKAKGQPREPQVYTLPPSREEMTKNQVSLTCLVKGFYPSDIAVEWESNGQPENNYKTTPPVLDSDGSFLLYSKLTVDKSRWQQGNVFSCSVMHEALHNHYTQKSLSLSP light 1: DIQMTQSPSSLSASVGDRVTITCRARQSIGTAIHWYQQKPGKAPKLLIKYASESISGVPSRFSGSGSGTDFTLTISSLQPEDFATYYCQQSGSWPYTFGQGTKLEIKRTVAAPSVFIFPPSDEQLKSGTASVVCLLNNFYPREAKVQWKVDNALQSGNSQESVTEQDSKDSTYSLSSTLTLSKADYEKHKVYACEVTHQGLSSPVTKSFNRGEC heavy 2: EVQLVESGGGLVKPGGSLRLSCAASGFTFSRYNMNWVRQAPGKGLEWVSSINSNSRYIYYADSVKGRFTISRDSAKNSLYLQMNSLRAEDTAVYYCAKTMGDYYYYYGMDVWGQGTTVTVSSASTKGPSVFPLAPSSKSTSGGTAALGCLVKDYFPEPVTVSWNSGALTSGVHTFPAVLQSSGLYSLSSVVTVPSSSLGTQTYICNVNHKPSNTKVDKKVEPKSCDKTHTCPPCPAPEAAGGPSVFLFPPKPKDTLMISRTPEVTCVVVSVSHEDPEVKFNWYVDGVEVHNAKTKPREEQYNSTYRVVSVLTVLHQDWLNGKEYKCKVSNKALPAPIEKTISKAKGQPREPQVYTLPPSREEMTKNQVSLTCLVKGFYPSDIAVEWESNGQPENNYKTTPPVLDSDGSFFLYSRLTVDKSRWQQGNVFSCSVMHEALHNHYTQKSLSLSPG light 2: SSELTQPPSVSGAPGQRVTISCAGSLSNIGAGYDVHWYQQLPGTAPKLLIYGNINRLSGVPERFSGSKSGTSASLAITGLQAEDGADYYCQSYDSSLSSYVFGTGTKVTVLGQPKAAPSVTLFPPSSEELQANKATLVCLISDFYPGAVTVAWKADSSPVKAGVETTTPSKQSNNKYAASSYLSLTPEQWKSHRSYSCQVTHEGSTVEKTVAPTECS | 1e-08
5 | 3.45e-11 | PS3B926 (bispecific antibody, human IgG1, kappa, lambda, L234A L235A) heavy 1: EVQLVESGGGLVKPGGSLRLSCAASGFTFSRYNMNWVRQAPGKGLEWVSSISTSSNYIYYADSVKGRFTFSRDNAKNSLDLQMSGLRAEDTAIYYCTRGWGPFDYWGQGTLVTVSSASTKGPSVFPLAPSSKSTSGGTAALGCLVKDYFPEPVTVSWNSGALTSGVHTFPAVLQSSGLYSLSSVVTVPSSSLGTQTYICNVNHKPSNTKVDKKVEPKSCDKTHTCPPCPAPEAAGGPSVFLFPPKPKDTLMISRTPEVTCVVVSVSHEDPEVKFNWYVDGVEVHNAKTKPREEQYNSTYRVVSVLTVLHQDWLNGKEYKCKVSNKALPAPIEKTISKAKGQPREPQVYTLPPSREEMTKNQVSLTCLVKGFYPSDIAVEWESNGQPENNYKTTPPVLDSDGSFLLYSKLTVDKSRWQQGNVFSCSVMHEALHNHYTQKSLSLSP light 1: DIQMTQSPSSLSASVGDRVTITCRARQSIGTAIHWYQQKPGKAPKLLIKYASESISGVPSRFSGSGSGTDFTLTISSLQPEDFATYYCQQSGSWPYTFGQGTKLEIKRTVAAPSVFIFPPSDEQLKSGTASVVCLLNNFYPREAKVQWKVDNALQSGNSQESVTEQDSKDSTYSLSSTLTLSKADYEKHKVYACEVTHQGLSSPVTKSFNRGEC heavy 2: not shown light 2: not shown | 4.78e-11
